These results are taken from US20070065425A1 (LABORATOIRE FRANCAIS DU FRACTIONNEMENT ET DES …, published 2007).

B2: BOIIB2 antibody (antibody, human IgG4, kappa, V domains shown)
VH: QVQLQESGPGLVKPSETLSLTCTVSGDSISDYYWSWIRQPPGKGLEWIGYFFYSGGSNYNPSLKSRVTMSVDTSKNQFSLKLGSVTAADTAVYYCARSQLRYYLDVWGQGTTVTVSS
VL: EIVLTQSPGTLSLSPGERATLSCRASQSVDSNYLAWYQQKPGQAPRVVIYGASNRATGIPDRFSGSGSGTEFTLTISRLDPEDFAVYYCQQYGSFFGQGTRLEIKR
notes: Human monoclonal IgG4 from a haemophilia A patient; also called anti-A2 antibody; FVIII anti-domain A2 BOIIB2 human antibody

For the test “BOIIB2 antibody”, the target named is B2. As to the kind of experiment: SPR (BIAcore), BOIIB2 immobilized on CM5, 30D1 as analyte. As for the experimental part: The kinetics of fixation of the 30D1 anti-idiotypic antibody to the BOIIB2 inhibitor antibody was assessed by the method <<Surface plasmon resonance Biacore>> using the Pharmacia Biosensor BIAcore (Pharmacia Biosensor AB, Uppsala, Sweden). The BOIIB2 antibodies were immobilized on an activated surface of a probe CM5. The 30D1 anti-idiotypic antibodies were infused in several concentrations of immobilized BOIIB2 on the surface of the probe.
For orientation: Surface plasmon resonance follows binding to a sensor surface in real time, without labels.

The target of test [1] is T1, Factor VIII fragment 379-546Mut (R484A, Y487A, R489A, P492A), tagged (UniProt P00451 398-565, labeled in vitro with L-(35S) methionine).
T1 construct: Produced in rabbit reticulocyte lysate
T1 sequence: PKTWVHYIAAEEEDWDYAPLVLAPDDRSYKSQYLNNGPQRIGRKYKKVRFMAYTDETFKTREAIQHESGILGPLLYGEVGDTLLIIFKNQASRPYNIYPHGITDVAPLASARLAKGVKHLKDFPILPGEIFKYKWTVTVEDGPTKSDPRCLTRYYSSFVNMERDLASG
The test can be described thus: immunoprecipitation of 35S-labelled fragment by BOIIB2 on Protein A Sepharose. As for the experimental part:
The immunoprecipitation of the transcribed genes is carried out as follows. Sample dilutions containing the specific antibodies are mixed with 40 up of Protein A Sepharose (Pharmacia) in 500 up of a suitable buffer, and the mixture is gently stirred for 1 hour at 4° C. The non-fixed antibodies are eliminated by means of a succession of centrifugations and washings. The complex antibody-Protein A Sepharose is resuspended in 300 up of buffer supplemented with 3 up of polypeptides of Factor VIII labeled in vitro with methionin L-(³⁵S), in order to incubate at 4° C. for 2 hours. The complexes antigens/antibodies are eluted from the beads by boiling for 3 minutes in 30 up of denaturating buffer and the radioactivity is counted. A second aliquot is analyzed by SDS-PAGE and visualized by autoradiography.
The fragments were immunoprecipitated by the human BOIIB2 antibody bound to Protein-A Sepharose. After washing, the complex was eluted and the radioactivity measured (in CPM) by scintillation and charged on SDS-PAGE, followed by an autoradiography. […] The anti-c-myc 9E10 antibody and the human plasma were used as positive and negative controls, respectively.

B1: 30D1 monoclonal anti-idiotypic antibody (antibody, mouse IgG1, V domains shown)
VH: EVQLQQSGPELVKPGASMKISCKASGYSFTDYTMNWVKQSHGKNLEWIGLINPYNVISSYNQKFKGKATLTVDKSSSTAYMELLSLTSEDSAVYYCARKGYGSSMFAYWGQGTLVTVSA
VL: DIVMTQSHKFMSTSVGGRVSITCKASQDVTTAVAWYQQKPGQSPKLLIYSASYRYTGVPDRFTGSGSGTDFTFTFSSVQAEDLAVYYCQQHYSIPWTFGGGTKLEIKR
notes: Tested as hybridoma supernatant and Protein G purified (SPR); also called 30D1 anti-Id; 30DA1
In the test with BOIIB2 antibody, B1 yielded a Kd of at most 0.17 nM, a koff of at most 1e-05 s⁻¹ and an association rate constant (kon) of 60000 M⁻¹ s⁻¹.

For B2, in test [1], the binding result is “no binding”.

Broadly, the Kd is the constant that tells how readily two partners part at equilibrium. A high value points to a looser complex. As a reminder, the koff is the rate constant with which the complex falls apart. A higher koff goes with fast dissociation. In general, kon refers to the rate constant with which the complex forms. A lower kon goes with slower complex formation.
